Measured values from patent publication EP4703383A1.

What was measured:
Test in all cases: ELISA, coated antigen 1 ug/mL, antibody 10 ug/mL
[1] = target: extracellular segment of the PRLR protein of cynomolgus monkey with avi-(his)6 tag (cynoPRLR-ECD-avi-his) (cynomolgus monkey)
[2] = target: murine PRLR extracellular domain (mouse) (UniProt Q08501)
[3] = target: extracellular segment of human PRLR protein with avi-(his)6 tag (hPRLR-ECD-avi-his) (human) (UniProt P16471)
Chain of extracellular segment of human PRLR protein with avi-(his)6 tag (hPRLR-ECD-avi-his) (human) (P16471 other isoform, or with tags, fused parts or gaps): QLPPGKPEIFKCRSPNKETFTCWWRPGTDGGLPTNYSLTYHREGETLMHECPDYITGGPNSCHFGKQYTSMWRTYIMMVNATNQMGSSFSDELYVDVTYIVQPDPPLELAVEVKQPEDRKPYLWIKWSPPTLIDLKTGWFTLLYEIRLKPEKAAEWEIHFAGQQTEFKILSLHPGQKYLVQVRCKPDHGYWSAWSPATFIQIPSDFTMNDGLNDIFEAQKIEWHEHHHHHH

Chain of extracellular segment of the PRLR protein of cynomolgus monkey with avi-(his)6 tag (cynoPRLR-ECD-avi-his) (cynomolgus monkey) (chain, as listed by the source limits assumed): as the sequence (P16471 other isoform, or with tags, fused parts or gaps) above, with I76V, A110T, I125M, I158T, T207I counted along it
Chain of murine PRLR extracellular domain (mouse) (Q08501 20-229): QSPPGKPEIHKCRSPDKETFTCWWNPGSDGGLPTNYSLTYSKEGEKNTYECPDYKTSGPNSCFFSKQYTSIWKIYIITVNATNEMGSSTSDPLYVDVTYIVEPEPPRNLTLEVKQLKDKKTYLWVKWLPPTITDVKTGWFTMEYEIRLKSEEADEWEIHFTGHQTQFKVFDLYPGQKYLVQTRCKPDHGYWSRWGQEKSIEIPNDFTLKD

| absorbance at 450nm [1] | absorbance at 450nm [2] | absorbance at 450nm [3] | Binder |
| --- | --- | --- | --- |
| 2.16 | 0.102 |  | P-PR-C07H (antibody, V domains shown) VH: EVQLQQSGAELVRPGTSVQISCKASGYTFTNNWLAWIKQRPGHGLEWIGDIYPGGVYTNYNEKFKGKATLTADTSSSTAYMQLSSLTSEDSAVYFCYYGDFWSAYWGQGTLVTVSA VL: DIVMTQAAPSVPVTPGESVSISCRSSKSLLHSNGNTYLYWFLQRPGQSPQLLIYRMSNLASGVPDRFSGSGSGTAFTLRISRVEAEDVGVYYCMQHLEYPLTFGAGTKLELK |
| 2.51 | 2.52 |  | P-PR-D06H (antibody, V domains shown) VH: QVQLQQPGSELVRPGASVKLSCKASGFTFTTFWVHWVKQRPGQGLEWIGNISPGSTSTNYNEKFKNKASLTVDTFSNTAYMQLSSLTSEDSAVYYCIRHSGNYFNAMDYWGQGTTLTVSS VL: DIVMTQAAPSVPVTPGESVTISCRSSKSLLHSNGKTYLYWFLQRPGQSPQLLIYWMSNLASGVPDRFSGSGSGTAFTLRISRVEAEDVGVYYCMQHLEYPFTFGVGTKLELK |
| 2.3 | 0.115 |  | P-PR-C02H (antibody, V domains shown) VH: QVQLQQPGSELVRPGASVRLSCKASGFTFTTYWVHWVKQRPGQGLEWIGNISPGSGSTNYDEKFKSKASLTVDTFSNTAYMQLSSLTSEDSAVYYCIRHSGNYFNAMDYWGQGTSVTVSS VL: DIVMTQATPSVPVAPGESVSISCRSSKSLLHTNGYTYLYWFLQRPGQSPQLLIYRMSNLASGVPDRFSGSGSGTAFTLRISRVEAEDVGVYYCMQHLEYPLTFGAGTKLELK |
| 2.51 | 0.09 | 2.25 | P-PR-G02W (antibody, V domains shown) VH: QVQLQQPGSELVRPGASVKLSCKASGFTFTTYWVHWVKQRPGQGLEWIGNISPGSGSTNYDEKFKSKASLTVDTFSNTAYMQLSSLTSEDSAVYYCIRHSGNYFNAMDYWGQGTTLTVSS VL: DIVMTQAAPSVPVTPGESVSISCRSSKSLLHSNGNTYLYWFLQRPGQSPQLLIYRMSNLASGVPDRFSGSGSGTAFTLRISRVEAEDVGVYYCMQHLEYPLTFGAGTKLELK |
| 2.51 | 0.141 |  | P-PR-B09W (antibody, V domains shown) VH: QVQLQQPGSELVRPGASVKLSCKASGFTFTTFWVHWVKQRPGQGLEWIGNISPGGTSTNYDEKFKSKASLTVDTFSNTAYMQLSSLTSEDSAVYYCIRHSGNYFNAMDYWGQGTSVTVSS VL: DIVMTQAAPSVPVTPGESVSISCRSSKSLLHSNGNTYLYWFLQRPGQSPQLLIYRMSNLASGVPDRFSGSGSGTAFTLRISRVEAEDVGVYYCMQHLEYPLTFGAGTKLELK |
| 2.25 | 0.094 |  | P-PR-C08H (antibody, V domains shown) VH: QVQLQQPGSELVRPGASVKLSCKASGFTFTTYWVHWVKQRPGQGLEWIGNISPGSGSTNYDEKFKSKASLTVDTFSNTAYMQLSSLTSEDSAVYYCIRHSGNYFNAMDYWGQGTTVTVSS VL: DIVMTQAAPSVPVTPGESVSISCRSSKSLLHSNGNTYLYWFLQRPGQSPQLLIYRMSNLASGVPDRFSGSGSGTAFTLRISRVEAEDVGVYYCMQHLEYPLTFGAGTKLELK |
| 2.37 | 0.118 |  | P-PR-D01H (antibody, V domains shown) VH: QVQLQQPGSELVRPGASVKLSCKASGFTFTTYWVHWVKQRPGQGLEWIGNISPGGGSTNYDEKFKSKASLTVDTFSNTAYMQLGSLTSEDSAVYYCIRHSGNYFNAMDYWGQGTTLTVSS VL: DIVMTQAAPSVPVTPGESVSISCRSSKSLLHSNGNTYLYWFLQRPGQSPQLLIYRMSNLASGVPDRFSGSGSGTAFTLRISRVEAEDVGVYYCMQHLEYPLTFGAGTKLELK |
| 2.25 | 0.09 | 2.16 | P-PR-C04W (antibody, V domains shown) VH: QVQLQQPGSELVRPGASVKLSCKASGFTFTTYWVHWVKQRPGQGLEWIGNISPGSGSTNYDEKFKSKASLTVDTFSNTAYMQLSSLTSEDSAVYYCIRHSGNYFNAMDYWGQGTTVTVSS VL: DIVMTQAAPSVPVTPGESVSISCRSSKSLLHSNGNTYLYWFLQRPGQSPQLLIYRMSNLASGVPDRFSGSGSGTAFTLRISRVEAEDVGVYYCMQHLEYPLTFGAGTKLELK |
| 0.435 | 0.334 | 3.94 | H-PR-B06 (antibody, V domains shown) VH: DVKLVESGGGLVKPGGSLKLACAASGFTFSSYTMSWVRQTPEKRLEWVATISSGGSYTYYPDSVKGRFTISRDNAKNTLYLQLSSLKSEDTAMYYCTRDRYYSTTPDWYFDVWGAGTTVTVSS VL: DIVLTQSPATLSVTPGDSVSLSCRATQIIFNNLHWYQQKSHESPRLLITYTSQSISGIPSRFSGSGSGTDFTLTINSVETEDFGMYFCQQSNTWPRTFGGGTKLEIK |
|  | 0.223 | 3.12 | HP-PR02H02 (antibody, V domains shown) VH: EVMLVESGGGLVKPGGSLKLACAASGFTFSSYTMSWVRQTPEKRLEWVATISSGGSYTYYPDSVKGRFTISRDNAKNTLYLQLSSLKSEDTAMYYCTRDRYYSTTPDWYFDVWGAGTTLTVSS VL: DIVITQSPATLSVTPGDSVSLSCRATQIIFNNLHWYQQKSHESPRLLITYTSQSISGIPSRFSGSGSGTDFTLTINSVETEDFGMYFCQQSNTWPRTFGGGTKLEIK |
| 1.52 | 0.273 | 1.45 | HP-PR01C02 (antibody, V domains shown) VH: DVHLVESGPGLVKPSQSLSLTCTVTGYSITSDYAWNWIRQFPGNKLEWMGYISYSGSTGYSPSLKSRVSITRDTSKNQFFLQLNSVTTEDTATYFCARNNWAFDFWGQGTTLTVSS VL: DIVLTQSPAIMSASPGEKVTMTCSASSSVNYMHWYQQKSGTSPKRWIYDTSKLASGVPARFSGSGSGTSYSLTISSMEAEDAATYYCQQWSSNPLTFGAGTKLELK |
|  | 0.161 | 0.638 | HP-PR01B01 (antibody, V domains shown) VH: EVHLVESGPDLVKPSQSLSLTCTVTGYSITSGYNWHWIRQFPGNKLEWMGYIHYSGSTKYDPSLKSRISFTRDTSRNQFFLQLNSVTTEDRATYYCARSEAGGYSWFAYWGQGTLVTVSA VL: DIVMTQSPAIMSASPGEKVTMACSASSSVNYMHWYQQKSGTSPKRWIYDTSKLASGVPARFSGSGSGTSYSLTISSMEAEDAATYYCQQWSSNPLTFGAGTKLELK |
| 3.75 | 0.382 | 4 | H-PR-B03 (antibody, V domains shown) VH: QVQLKESGPGLVAPSQSLSITCTVSGFSLTGFGVNWFRQPPGRGLEWLGMIWGDGSTDYNSALKSRLSISKDNSKSQVFLKMNSLQTDDTARYYCARVLYYYGGNSFAYWGQGTLVTVSA VL: DVLMTQTPLSLPVSLGDQASISCRSSQSIVHSNGNTYLEWYLQKPGQSPKLLIYKVSSRFSGVPDRFSGSGSGTDFTLKISRVEAEDLGVYYCFQGSHVPYTFGGGTKLEIK |
| 3.65 | 3.44 | 3.91 | HP-PR02E11 (antibody, V domains shown) VH: QVQLQQSGPGLVAPSQSLSITCTVSGFSLTSYGVNWVRQPPGKGLEWLGIIGAGGSTNYNSALMSRLSISKDNSKSQVFLKMNSLQTDDTAMYYCARSLYYYGSSSFAYWGQGTLVTVSA VL: DIVMTQTPLSLPVSLGDQASISCRSSQSIVHSNGNTYLEWYLQKPGQSPKLLIYKVSNRFSGVPDRFSGSGSGTDFTLKISRVEAEDLGVYYCFQGSHVPWTFGGGTKLELK |
